In the supplement of paper PMC10567573:

B1: ZBTB22 (parent)
chain: RPFDCPVCNKKFKMKHHLTEHMKT
B2: TOR1AIP2 (parent)
chain: HHVADAYTSSQKVSPIQIDGAGRT

Variants of: B1
Test: protein stability index of a GFP-peptide fusion (GPS, HEK-293T) (PSI 1-6); higher = more stable
Conditions: c terminus: a fixed tail appended
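Further: lentivirally expressed fusions sorted by FACS into six bins by GFP to DsRed ratio, PSI derived from sequencing read proportions per bin multiplied by bin number.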

Protein stability index: each site, then its substitutions
K11: Q 2.31, R 2.8, S 3.12, T 2.91, V 2.52, W 2.21, Y 2.17
F12: A 2.44, C 4.09, D 2.22, E 3.22, G 2.65, H 2.6, I 2.49, K 2.1, L 2.38, M 2.78, N 1.96, P 2.5, Q 2.6, R 1.83, S 2.53, T 2.64, V 2.04, W 2.02, Y 2.4
K13: A 2.85, C 4.49, D 3.45, E 3.31, F 2.33, G 2.6, H 2.65, I 2.14, L 2.89, M 2.27, N 2.29, P 2.74, Q 3.12, R 2.33, S 2.91, T 3.12, V 2.9, W 2.58, Y 2.72
M14: A 3.09, C 3.9, D 3.75, E 3.72, F 2.84, G 2.69, H 3.48, I 2.35, K 2.93, L 2.46, N 3.89, P 2.5, Q 3.17, R 3.14, S 3.96, T 3.75, V 2.58, W 2.26, Y 3.1
K15: A 2.03, C 4.13, D 2.85, E 3.73, F 2.39, G 2.78, H 2.24, I 1.76, L 2.65, M 2.24, N 2.12, P 2.67, Q 2.26, R 2.19, S 2.22, T 1.87, V 2.62, W 2.47, Y 2.37
H16: A 2.59, C 2.91, D 2.56, E 3.27, F 1.9, G 2.11, I 2.08, K 2.55, L 2.56, M 2.71, N 2.71, P 2.25, Q 2.7, R 2.29, S 2.83, T 2.39, V 2.08, W 2.27, Y 2.28
H17: A 2.17, C 2.25, D 3.07, E 3.42, F 1.73, G 1.74, I 1.79, K 3.1, L 1.94, M 2.42, N 2.62, P 2.19, Q 2.74, R 2.18, S 2.42, T 2.15, V 2.24, W 2.08, Y 1.95
L18: A 2.93, C 4.01, D 2.39, E 2.78, F 2.7, G 3.36, H 3.08, I 2.1, K 2.78, M 2.19, N 2.59, P 2.37, Q 2.58, R 2.89, S 2.44, T 2.67, V 3.5, W 2.59, Y 2.25
T19: A 2.89, C 4.25, D 3.19, E 3.39, F 2.28, G 3.17, H 2.8, I 3.07, K 2.48, L 2.8, M 3.18, N 2.88, P 2.48, Q 2.33, R 3.34, S 2.35, V 3, W 2.02, Y 2.41
E20: A 2.78, C 2.83, D 2.99, F 2.21, G 2.73, H 2.44, I 2.21, K 3.1, L 1.83, M 2.62, N 3, P 2.11, Q 2.8, R 3.45, S 1.93, T 2.31, V 2.36, W 2.08, Y 1.85
H21: A 2.74, C 3.33, D 2.37, E 2.88, F 2.06, G 2.38, I 1.84, K 2.25, L 1.45, M 1.54, N 2.38, P 2.37, Q 2.34, R 2.25, S 2.52, T 2.24, V 2.44, W 2.13, Y 2.2
M22: A 2.48, C 2.93, D 3.1, E 3, F 2.3, G 2.68, H 2.75, I 2.15, K 2.92, L 2.95, N 2.62, P 2.48, Q 2.71, R 2.48, S 2.29, T 2.38, V 1.89, W 2.43, Y 2.72
K23: A 2.3, C 4.19, D 2.61, E 2.39, F 1.95, G 2.99, H 3.06, I 2.38, L 2.38, M 2.11, N 3.29, P 2.48, Q 3.34, R 2.26, S 2.4, T 2.38, V 2.37, W 1.98, Y 2.17
T24: A 2.87, C 3.07, D 3.55, E 3.21, F 2.46, G 2.44, H 2.41, I 1.95, K 2.43, L 3.19, M 2.5, N 2.54, P 2.45, Q 2.53, R 2.84, S 2.53, V 2.34, W 2.22, Y 2.01

Variants of: B2
Test: as above
Conditions: c terminus: a fixed tail appended

Protein stability index of substitutions, site by site:
H1: A 4.54, C 3.67, D 4.91, E 4.66, F 2.69, G 4.43, I 3.14, K 3.94, L 3.81, M 3.93, N 4.53, P 3.85, Q 4.15, R 4.33, S 4.3, T 3.94, V 3.86, W 3.68, Y 3.09
H2: A 4.01, C 3.5, D 4.75, E 4.74, F 3.77, G 4.15, I 2.08, K 4.32, L 1.86, M 2.81, N 4.27, P 3.87, Q 2.51, R 3.67, S 4.08, T 3.81, V 1.99, W 2.96, Y 3.4
V3: A 1.62, C 1.75, D 2.96, E 3.12, F 2.34, G 2.73, H 2.82, I 4.2, K 3.19, L 3.77, M 2.92, N 2.04, P 4.2, Q 2.63, R 2.95, S 2.46, T 3.1, W 2.42, Y 1.51
A4: C 2.84, D 4.76, E 4.43, F 3.42, G 4.25, H 3.43, I 3.01, K 3.86, L 3.99, M 4.01, N 4.17, P 2.34, Q 3.67, R 3.95, S 3.84, T 2.27, V 3.39, W 3.57, Y 4.04
D5: A 2.63, C 2.46, E 2.73, F 2.24
